Each substance was assayed against HLA-A*02:01 (Homo sapiens, UniProt P04439, D140Y/D185E/D98H/E176V/E277Q/G131W/G231S/I119V/I121R/I166T/I218V/L300P/L318F/N151K/N90K/P208A/P217A/Q86G/Q94H/R138H/R169H/T345S) (assay: MHC binding assay: UV-ligand exchange and β2m ELISA (peptide exchange yield, Table 7)). Settings: binding of HLA-class I restricted peptides to HLA-A*02:01, UV-ligand exchange.
Description: Candidate peptides for T cell based therapies according to the present invention were further tested for their MHC binding capacity (affinity). The individual peptide-MHC complexes were produced by UV-ligand exchange, where a UV-sensitive peptide is cleaved upon UV-irradiation, and exchanged with the peptide of interest as analyzed. Only peptide candidates that can effectively bind and stabilize the peptide-receptive MHC molecules prevent dissociation of the MHC complexes. To determine the yield of the exchange reaction, an ELISA was performed based on the detection of the light chain (β2 m) of stabilized MHC complexes. The assay was performed as generally described in Rodenko et al. (Rodenko et al., 2006).
96 well MAXISorp plates (NUNC) were coated over night with 2 ug/ml streptavidin in PBS at room temperature, washed 4× and blocked for 1 h at 37° C. in 2% BSA containing blocking buffer. Refolded HLA-A*02:01/MLA-001 monomers served as standards, covering the range of 15-500 ng/ml. Peptide-MHC monomers of the UV-exchange reaction were diluted 100 fold in blocking buffer. Samples were incubated for 1 h at 37° C., washed four times, incubated with 2 ug/ml HRP conjugated anti-β2 m for 1 h at 37° C., washed again and detected with TMB solution that is stopped with […]. Absorption was measured at 450 nm. Candidate peptides that show a high exchange yield (preferably higher than 50%, most preferred higher than 75%) are generally preferred for a generation and production of antibodies or fragments thereof, and/or T cell receptors or fragments thereof, as they show sufficient avidity to the MHC molecules and prevent dissociation of the MHC complexes.

Row | Substance | Peptide exchange (MHC class I binding score, peptide exchange yield)
1 | 74 (GLAFLPASV; listed as Homo sapiens) [compound 74] | ++ (≥20% = ++)
2 | 75 (ALLDGALQL; listed as Homo sapiens) [compound 75] | +++ (≥50% = +++)
3 | 76 (FTAEFLEKV; listed as Homo sapiens) [compound 76] | +++ (≥50% = +++)
4 | 77 (ALYGNVQQV; listed as Homo sapiens) [compound 77] | +++ (≥50% = +++)
5 | 79 (TVLEEIGNRV; listed as Homo sapiens) [compound 79] | ++ (≥20% = ++)
6 | 80 (VLTGQVHEL; listed as Homo sapiens) [compound 80] | +++ (≥50% = +++)
7 | 81 (ILAEEPIYI; listed as Homo sapiens) [compound 81] | ++ (≥20% = ++)
8 | 82 (ILAEEPIYIRV; listed as Homo sapiens) [compound 82] | +++ (≥50% = +++)
9 | 83 (GLLENSPHL; listed as Homo sapiens) [compound 83] | ++ (≥20% = ++)
10 | 84 (FLLEREQLL; listed as Homo sapiens) [compound 84] | ++++ (≥75% = ++++)
11 | 85 (KLLDKPEQFL; listed as Homo sapiens) [compound 85] | ++ (≥20% = ++)
12 | 86 (SLFSNIESV; listed as Homo sapiens) [compound 86] | +++ (≥50% = +++)
13 | 87 (KLLSLLEEA; listed as Homo sapiens) [compound 87] | +++ (≥50% = +++)
14 | 88 (LLLPLELSLA; listed as Homo sapiens) [compound 88] | +++ (≥50% = +++)
15 | 89 (SLAETIFIV; listed as Homo sapiens) [compound 89] | +++ (≥50% = +++)
16 | 90 (AILNVDEKNQV; listed as Homo sapiens) [compound 90] | ++ (≥20% = ++)
17 | 91 (LLPSIFLMV; listed as Homo sapiens) [compound 91] | ++ (≥20% = ++)
18 | 92 (RLFEEVLGV; listed as Homo sapiens) [compound 92] | ++++ (≥75% = ++++)
19 | 93 (RLYGYFHDA; listed as Homo sapiens) [compound 93] | ++ (≥20% = ++)
20 | 94 (YLDEVAFML; listed as Homo sapiens) [compound 94] | +++ (≥50% = +++)
21 | 95 (KLIDEDEPLFL; listed as Homo sapiens) [compound 95] | +++ (≥50% = +++)

Row | Substance | Peptide exchange (MHC class I binding score, peptide exchange yield)
22 | 96 (ALDTTRHEL; listed as Homo sapiens) [compound 96] | ++ (≥20% = ++)
23 | 97 (KLFEKSTGL; listed as Homo sapiens) [compound 97] | +++ (≥50% = +++)
24 | 98 (FVQEKIPEL; listed as Homo sapiens) [compound 98] | +++ (≥50% = +++)
25 | 99 (TLFGIQLTEA; listed as Homo sapiens) [compound 99] | +++ (≥50% = +++)
26 | 100 (ALQSFEFRV; listed as Homo sapiens) [compound 100] | +++ (≥50% = +++)
27 | 101 (SLLEVNEASSV; listed as Homo sapiens) [compound 101] | +++ (≥50% = +++)
28 | 102 (GLYPVTLVGV; listed as Homo sapiens) [compound 102] | +++ (≥50% = +++)
29 | 103 (YLADTVQKL; listed as Homo sapiens) [compound 103] | ++ (≥20% = ++)
30 | 105 (AMLASQTEA; listed as Homo sapiens) [compound 105] | ++ (≥20% = ++)
31 | 106 (VLLGSVVIFA; listed as Homo sapiens) [compound 106] | ++ (≥20% = ++)
32 | 107 (RVLPGQAVTGV; listed as Homo sapiens) [compound 107] | ++ (≥20% = ++)
33 | 108 (FIANLPPELKA; listed as Homo sapiens) [compound 108] | +++ (≥50% = +++)
34 | 109 (ILGSFELQL; listed as Homo sapiens) [compound 109] | +++ (≥50% = +++)
35 | 110 (QIQGQVSEV; listed as Homo sapiens) [compound 110] | ++ (≥20% = ++)
36 | 111 (AQLEGKLVSI; listed as Homo sapiens) [compound 111] | +++ (≥50% = +++)
37 | 112 (ILAQDVAQL; listed as Homo sapiens) [compound 112] | +++ (≥50% = +++)
38 | 113 (FLFLKEVKV; listed as Homo sapiens) [compound 113] | ++ (≥20% = ++)
39 | 114 (LLFPSDVQTL; listed as Homo sapiens) [compound 114] | ++ (≥20% = ++)
40 | 115 (ILHGEVNKV; listed as Homo sapiens) [compound 115] | ++ (≥20% = ++)
41 | 116 (ALLSSVAEA; listed as Homo sapiens) [compound 116] | ++ (≥20% = ++)
42 | 117 (TLLEGISRA; listed as Homo sapiens) [compound 117] | ++ (≥20% = ++)

Row | Substance | Peptide exchange (MHC class I binding score, peptide exchange yield)
43 | 119 (SLIEESEEL; listed as Homo sapiens) [compound 119] | ++ (≥20% = ++)
44 | 121 (ALYVQAPTV; listed as Homo sapiens) [compound 121] | ++ (≥20% = ++)
45 | 122 (SIIDTELKV; listed as Homo sapiens) [compound 122] | +++ (≥50% = +++)
46 | 123 (QTAPEEAFIKL; listed as Homo sapiens) [compound 123] | + (≥10% = +)
47 | 124 (ALLLRLFTI; listed as Homo sapiens) [compound 124] | ++ (≥20% = ++)
48 | 125 (AALEVLAEV; listed as Homo sapiens) [compound 125] | +++ (≥50% = +++)
49 | 126 (QLREAFEQL; listed as Homo sapiens) [compound 126] | +++ (≥50% = +++)
50 | 128 (SILTNISEV; listed as Homo sapiens) [compound 128] | ++ (≥20% = ++)
51 | 129 (KMASKVTQV; listed as Homo sapiens) [compound 129] | ++ (≥20% = ++)
52 | 130 (QLYGSAITL; listed as Homo sapiens) [compound 130] | +++ (≥50% = +++)
53 | 131 (SLYPHFTLL; listed as Homo sapiens) [compound 131] | +++ (≥50% = +++)
54 | 132 (ALLNNVIEV; listed as Homo sapiens) [compound 132] | +++ (≥50% = +++)
55 | 133 (FLDGRPLTL; listed as Homo sapiens) [compound 133] | ++ (≥20% = ++)
56 | 134 (SLYKSFLQL; listed as Homo sapiens) [compound 134] | ++ (≥20% = ++)
57 | 136 (LLWDAPAKC; listed as Homo sapiens) [compound 136] | +++ (≥50% = +++)
58 | 137 (KLIYKDLVSV; listed as Homo sapiens) [compound 137] | ++ (≥20% = ++)
59 | 138 (GIINKLVTV; listed as Homo sapiens) [compound 138] | ++ (≥20% = ++)
60 | 139 (IILENIQSL; listed as Homo sapiens) [compound 139] | +++ (≥50% = +++)
61 | 140 (FLDSQITTV; listed as Homo sapiens) [compound 140] | +++ (≥50% = +++)
62 | 141 (NIDINNNEL; listed as Homo sapiens) [compound 141] | ++ (≥20% = ++)
